In paper PMC7372559 (ACS Chemical Biology, 2020):

Molecular target: the molecule itself
Test: SEC; Superdex-200 Increase column, 25 mM Tris-HCl (pH 8.0), 10% (v/v) glycerol, 100 mM NaCl; retention time of mutants compared with wild type

| Protein | stoichiometry N |
| --- | --- |
| OphMA wild type, full-length, His8-tagged (enzyme, Omphalotus olearius, UniProt A0A2R2JFI5 1-417, looked up, backbone N-methylation: most abundant species with complete methylation of the core peptide (9-fold) and an additional methylation at Val413) METSTQTKAGSLTIVGTGIESIGQMTLQALSYIEAAAKVFYCVIDPATEAFILTKNKNCVDLYQYYDNGKSRLNTYTQMSELMVREVRKGLDVVGVFYGHPGVFVNPSHRALAIAKSEGYRARMLPGVSAEDCLFADLCIDPSNPGCLTYEASDFLIRDRPVSIHSHLVLFQVGCVGIADFNFTGFDNNKFGVLVDRLEQEYGAEHPVVHYIAAMMPHQDPVTDKYTVAQLREPEIAKRVGGVSTFYIPPKARKASNLDIIRRLELLPAGQVPDKKARIYPANQWEPDVPEVEPYRPSDQAAIAQLADHAPPEQYQPLATSKAMSDVMTKLALDPKALADYKADHRAFAQSVPDLTPQERAALELGDSWAIRCAMKNMPSSLLDAARESGEEASQNGFPWVIVVGVIGVIGSVMSTE | 2 |
| OphMA V403E, full-length, His-tagged (enzyme, backbone N-methylation: peptides with 1 methylation) METSTQTKAGSLTIVGTGIESIGQMTLQALSYIEAAAKVFYCVIDPATEAFILTKNKNCVDLYQYYDNGKSRLNTYTQMSELMVREVRKGLDVVGVFYGHPGVFVNPSHRALAIAKSEGYRARMLPGVSAEDCLFADLCIDPSNPGCLTYEASDFLIRDRPVSIHSHLVLFQVGCVGIADFNFTGFDNNKFGVLVDRLEQEYGAEHPVVHYIAAMMPHQDPVTDKYTVAQLREPEIAKRVGGVSTFYIPPKARKASNLDIIRRLELLPAGQVPDKKARIYPANQWEPDVPEVEPYRPSDQAAIAQLADHAPPEQYQPLATSKAMSDVMTKLALDPKALADYKADHRAFAQSVPDLTPQERAALELGDSWAIRCAMKNMPSSLLDAARESGEEASQNGFPWVIEVGVIGVIGSVMSTE | 2 |
| OphMA V404E, full-length, His-tagged (in vivo methylation series) (enzyme, backbone N-methylation: peptides with 2 methylations) METSTQTKAGSLTIVGTGIESIGQMTLQALSYIEAAAKVFYCVIDPATEAFILTKNKNCVDLYQYYDNGKSRLNTYTQMSELMVREVRKGLDVVGVFYGHPGVFVNPSHRALAIAKSEGYRARMLPGVSAEDCLFADLCIDPSNPGCLTYEASDFLIRDRPVSIHSHLVLFQVGCVGIADFNFTGFDNNKFGVLVDRLEQEYGAEHPVVHYIAAMMPHQDPVTDKYTVAQLREPEIAKRVGGVSTFYIPPKARKASNLDIIRRLELLPAGQVPDKKARIYPANQWEPDVPEVEPYRPSDQAAIAQLADHAPPEQYQPLATSKAMSDVMTKLALDPKALADYKADHRAFAQSVPDLTPQERAALELGDSWAIRCAMKNMPSSLLDAARESGEEASQNGFPWVIVEGVIGVIGSVMSTE | 2 |
| OphMA V406E, full-length, His-tagged (enzyme, backbone N-methylation: mixture of similarly abundant peptides containing 4, 5, or 6 methylations) METSTQTKAGSLTIVGTGIESIGQMTLQALSYIEAAAKVFYCVIDPATEAFILTKNKNCVDLYQYYDNGKSRLNTYTQMSELMVREVRKGLDVVGVFYGHPGVFVNPSHRALAIAKSEGYRARMLPGVSAEDCLFADLCIDPSNPGCLTYEASDFLIRDRPVSIHSHLVLFQVGCVGIADFNFTGFDNNKFGVLVDRLEQEYGAEHPVVHYIAAMMPHQDPVTDKYTVAQLREPEIAKRVGGVSTFYIPPKARKASNLDIIRRLELLPAGQVPDKKARIYPANQWEPDVPEVEPYRPSDQAAIAQLADHAPPEQYQPLATSKAMSDVMTKLALDPKALADYKADHRAFAQSVPDLTPQERAALELGDSWAIRCAMKNMPSSLLDAARESGEEASQNGFPWVIVVGEIGVIGSVMSTE | 2 |
| OphMA I407E, full-length, His-tagged (enzyme, backbone N-methylation: peptides with 5 methylations) METSTQTKAGSLTIVGTGIESIGQMTLQALSYIEAAAKVFYCVIDPATEAFILTKNKNCVDLYQYYDNGKSRLNTYTQMSELMVREVRKGLDVVGVFYGHPGVFVNPSHRALAIAKSEGYRARMLPGVSAEDCLFADLCIDPSNPGCLTYEASDFLIRDRPVSIHSHLVLFQVGCVGIADFNFTGFDNNKFGVLVDRLEQEYGAEHPVVHYIAAMMPHQDPVTDKYTVAQLREPEIAKRVGGVSTFYIPPKARKASNLDIIRRLELLPAGQVPDKKARIYPANQWEPDVPEVEPYRPSDQAAIAQLADHAPPEQYQPLATSKAMSDVMTKLALDPKALADYKADHRAFAQSVPDLTPQERAALELGDSWAIRCAMKNMPSSLLDAARESGEEASQNGFPWVIVVGVEGVIGSVMSTE | 2 |
| OphMA V403R, full-length, His-tagged (enzyme, backbone N-methylation: dominant species unmethylated, next most abundant with two methylations) METSTQTKAGSLTIVGTGIESIGQMTLQALSYIEAAAKVFYCVIDPATEAFILTKNKNCVDLYQYYDNGKSRLNTYTQMSELMVREVRKGLDVVGVFYGHPGVFVNPSHRALAIAKSEGYRARMLPGVSAEDCLFADLCIDPSNPGCLTYEASDFLIRDRPVSIHSHLVLFQVGCVGIADFNFTGFDNNKFGVLVDRLEQEYGAEHPVVHYIAAMMPHQDPVTDKYTVAQLREPEIAKRVGGVSTFYIPPKARKASNLDIIRRLELLPAGQVPDKKARIYPANQWEPDVPEVEPYRPSDQAAIAQLADHAPPEQYQPLATSKAMSDVMTKLALDPKALADYKADHRAFAQSVPDLTPQERAALELGDSWAIRCAMKNMPSSLLDAARESGEEASQNGFPWVIRVGVIGVIGSVMSTE | 2 |
| OphMA V404R, full-length, His-tagged (enzyme, backbone N-methylation: dominant species unmethylated, next most abundant with two methylations) METSTQTKAGSLTIVGTGIESIGQMTLQALSYIEAAAKVFYCVIDPATEAFILTKNKNCVDLYQYYDNGKSRLNTYTQMSELMVREVRKGLDVVGVFYGHPGVFVNPSHRALAIAKSEGYRARMLPGVSAEDCLFADLCIDPSNPGCLTYEASDFLIRDRPVSIHSHLVLFQVGCVGIADFNFTGFDNNKFGVLVDRLEQEYGAEHPVVHYIAAMMPHQDPVTDKYTVAQLREPEIAKRVGGVSTFYIPPKARKASNLDIIRRLELLPAGQVPDKKARIYPANQWEPDVPEVEPYRPSDQAAIAQLADHAPPEQYQPLATSKAMSDVMTKLALDPKALADYKADHRAFAQSVPDLTPQERAALELGDSWAIRCAMKNMPSSLLDAARESGEEASQNGFPWVIVRGVIGVIGSVMSTE | 2 |
| OphMA V406R, full-length, His-tagged (enzyme, backbone N-methylation: dominant species unmethylated, next most abundant with two methylations) METSTQTKAGSLTIVGTGIESIGQMTLQALSYIEAAAKVFYCVIDPATEAFILTKNKNCVDLYQYYDNGKSRLNTYTQMSELMVREVRKGLDVVGVFYGHPGVFVNPSHRALAIAKSEGYRARMLPGVSAEDCLFADLCIDPSNPGCLTYEASDFLIRDRPVSIHSHLVLFQVGCVGIADFNFTGFDNNKFGVLVDRLEQEYGAEHPVVHYIAAMMPHQDPVTDKYTVAQLREPEIAKRVGGVSTFYIPPKARKASNLDIIRRLELLPAGQVPDKKARIYPANQWEPDVPEVEPYRPSDQAAIAQLADHAPPEQYQPLATSKAMSDVMTKLALDPKALADYKADHRAFAQSVPDLTPQERAALELGDSWAIRCAMKNMPSSLLDAARESGEEASQNGFPWVIVVGRIGVIGSVMSTE | 2 |
| OphMA I407R, full-length, His-tagged (enzyme, backbone N-methylation: dominant species carried three methylations) METSTQTKAGSLTIVGTGIESIGQMTLQALSYIEAAAKVFYCVIDPATEAFILTKNKNCVDLYQYYDNGKSRLNTYTQMSELMVREVRKGLDVVGVFYGHPGVFVNPSHRALAIAKSEGYRARMLPGVSAEDCLFADLCIDPSNPGCLTYEASDFLIRDRPVSIHSHLVLFQVGCVGIADFNFTGFDNNKFGVLVDRLEQEYGAEHPVVHYIAAMMPHQDPVTDKYTVAQLREPEIAKRVGGVSTFYIPPKARKASNLDIIRRLELLPAGQVPDKKARIYPANQWEPDVPEVEPYRPSDQAAIAQLADHAPPEQYQPLATSKAMSDVMTKLALDPKALADYKADHRAFAQSVPDLTPQERAALELGDSWAIRCAMKNMPSSLLDAARESGEEASQNGFPWVIVVGVRGVIGSVMSTE | 2 |
| OphMA V403P, full-length, His-tagged (enzyme, backbone N-methylation: dominant species unmethylated, evidence for two methylations) METSTQTKAGSLTIVGTGIESIGQMTLQALSYIEAAAKVFYCVIDPATEAFILTKNKNCVDLYQYYDNGKSRLNTYTQMSELMVREVRKGLDVVGVFYGHPGVFVNPSHRALAIAKSEGYRARMLPGVSAEDCLFADLCIDPSNPGCLTYEASDFLIRDRPVSIHSHLVLFQVGCVGIADFNFTGFDNNKFGVLVDRLEQEYGAEHPVVHYIAAMMPHQDPVTDKYTVAQLREPEIAKRVGGVSTFYIPPKARKASNLDIIRRLELLPAGQVPDKKARIYPANQWEPDVPEVEPYRPSDQAAIAQLADHAPPEQYQPLATSKAMSDVMTKLALDPKALADYKADHRAFAQSVPDLTPQERAALELGDSWAIRCAMKNMPSSLLDAARESGEEASQNGFPWVIPVGVIGVIGSVMSTE | 2 |
| OphMA V406P, full-length, His-tagged (in vivo methylation series) (enzyme, backbone N-methylation: dominant species unmethylated, evidence for two and four methylations) METSTQTKAGSLTIVGTGIESIGQMTLQALSYIEAAAKVFYCVIDPATEAFILTKNKNCVDLYQYYDNGKSRLNTYTQMSELMVREVRKGLDVVGVFYGHPGVFVNPSHRALAIAKSEGYRARMLPGVSAEDCLFADLCIDPSNPGCLTYEASDFLIRDRPVSIHSHLVLFQVGCVGIADFNFTGFDNNKFGVLVDRLEQEYGAEHPVVHYIAAMMPHQDPVTDKYTVAQLREPEIAKRVGGVSTFYIPPKARKASNLDIIRRLELLPAGQVPDKKARIYPANQWEPDVPEVEPYRPSDQAAIAQLADHAPPEQYQPLATSKAMSDVMTKLALDPKALADYKADHRAFAQSVPDLTPQERAALELGDSWAIRCAMKNMPSSLLDAARESGEEASQNGFPWVIVVGPIGVIGSVMSTE | 2 |
| OphMA V403T, full-length, His-tagged (enzyme, backbone N-methylation: 10-fold methylated species most abundant) METSTQTKAGSLTIVGTGIESIGQMTLQALSYIEAAAKVFYCVIDPATEAFILTKNKNCVDLYQYYDNGKSRLNTYTQMSELMVREVRKGLDVVGVFYGHPGVFVNPSHRALAIAKSEGYRARMLPGVSAEDCLFADLCIDPSNPGCLTYEASDFLIRDRPVSIHSHLVLFQVGCVGIADFNFTGFDNNKFGVLVDRLEQEYGAEHPVVHYIAAMMPHQDPVTDKYTVAQLREPEIAKRVGGVSTFYIPPKARKASNLDIIRRLELLPAGQVPDKKARIYPANQWEPDVPEVEPYRPSDQAAIAQLADHAPPEQYQPLATSKAMSDVMTKLALDPKALADYKADHRAFAQSVPDLTPQERAALELGDSWAIRCAMKNMPSSLLDAARESGEEASQNGFPWVITVGVIGVIGSVMSTE | 2 |
| OphMA I407P, full-length, His-tagged (in vivo methylation series) (enzyme, backbone N-methylation: a variety of species (two to four methylations), evidence of up to six) METSTQTKAGSLTIVGTGIESIGQMTLQALSYIEAAAKVFYCVIDPATEAFILTKNKNCVDLYQYYDNGKSRLNTYTQMSELMVREVRKGLDVVGVFYGHPGVFVNPSHRALAIAKSEGYRARMLPGVSAEDCLFADLCIDPSNPGCLTYEASDFLIRDRPVSIHSHLVLFQVGCVGIADFNFTGFDNNKFGVLVDRLEQEYGAEHPVVHYIAAMMPHQDPVTDKYTVAQLREPEIAKRVGGVSTFYIPPKARKASNLDIIRRLELLPAGQVPDKKARIYPANQWEPDVPEVEPYRPSDQAAIAQLADHAPPEQYQPLATSKAMSDVMTKLALDPKALADYKADHRAFAQSVPDLTPQERAALELGDSWAIRCAMKNMPSSLLDAARESGEEASQNGFPWVIVVGVPGVIGSVMSTE | 2 |
